Biological target: T1, Human PD-1-His protein (Cat. #10377H08H, Sino Biological) (human, UniProt Q15116 25-167)
T1 construct: Bought protein; also called hPD-1-His; hu PD-1-his; not shown: His tag of the bought protein
Assay: SPR (Biacore), antibody captured on Protein A chip, PD-1 in flow
Description: IgG was affinity captured by using a Protein A biosensor chip (Cat. #29127556, GE). Human PD-1 antigen (Cat. #10377H08H, Sino Biological) and Cyno PD-1 antigen (purchased from Sino Biological) flowed across the surface of the chip, and the binding and dissociation curves were obtained by real time detection of PD-1 antibody and antigen PD-1 reaction signals by a Biacore T200 instrument. After the dissociation of each experimental cycle was completed, the biosensor chip was washed and regenerated with 10 mM Glycine-HCl pH 1.5 buffer. The experimental buffer system was 1×HBS-EP buffer solution (Cat #BR-1001-88, GE). After the experiment, GE Biacore T200 Evaluation version 3.0 software was used to fit the data with a (1:1) Langmuir model, and the affinity value was obtained.

T1 sequence (Q15116 25-167 limits assumed): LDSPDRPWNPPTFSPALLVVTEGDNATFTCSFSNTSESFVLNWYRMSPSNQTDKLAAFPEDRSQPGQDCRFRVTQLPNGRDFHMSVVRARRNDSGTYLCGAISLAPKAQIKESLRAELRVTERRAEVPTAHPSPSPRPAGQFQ

Binder | Kd [nM] | koff [s⁻¹] | kon [M⁻¹ s⁻¹]
Hu32a-29.IgG4AA (antibody, V domains shown, Full-length IgG4-AA, kappa) VH: EVQLVQSGAEVKKPGSSVKVSCKASGFTFSDYEIHWVRQAPGQGLEWMGLFDPETGGIVYNQKFKGRVTLTADKSTSTAYMELSSLRSEDTAVYYCTREGYNRDWYFDVWGQGTTVTVSS VL: DIVMTQTPLSLPVTPGEPASISCRSSQSLVHSTGNTYLEWYLQKPGQSPQLLIYKVSNRFSGVPDRFSGSGSGTDFTLKISRVEAEDVGVYYCFQGSHVPYTFGGGTKVEIKR | 7.86 | 0.00062 | 78900
Hu32a-43.IgG4AA (antibody, V domains shown, Full-length IgG4-AA, kappa) VH: EVQLVQSGAEVKKPGSSVKVSCKASDFTFSDYEIHWVRQAPGQGLEWMGLFDPETGGIVYNQKFKGRVTLTADKSTSTAYMELSSLRSEDTAVYYCTREGYNRDWYFDVWGQGTTVTVSS VL: DIVMTQTPLSLPVTPGEPASISCRSSQSLVHSTGNTYLEWYLQKPGQSPQLLIYKVSNRFSGVPDRFSGSGSGTDFTLKISRVEAEDVGVYYCFQGSHVPYTFGGGTKVEIKR | 8.16 | 0.000685 | 83900
Hu32a-15.IgG4AA (antibody, V domains shown, Full-length IgG4-AA, kappa) VH: EVQLVQSGAEVKKPGSSVKVSCKASGGTFSDYEIHWVRQAPGQGLEWMGLFDPETGGIVYNQKFKGRVTITADKSTSTAYMELSSLRSEDTAVYYCAREGYNRDWYFDVWGQGTTVTVSS VL: DIVMTQTPLSLPVTPGEPASISCRSSQSLVHSTGNTYLEWYLQKPGQSPQLLIYKVSNRFSGVPDRFSGSGSGTDFTLKISRVEAEDVGVYYCFQGSHVPYTFGGGTKVEIKR | 51.4 | 0.00252 | 48900
Hu32a-71.IgG4AA (antibody, V domains shown, Full-length IgG4-AA, kappa) VH: EVQLVQSGAEVKKPGSSVKVSCKASDFTFTDYEIHWVRQAPGQGLEWIGLFDPETGGIVYNQKFKGRATLTADKSTSTAYMEFSSLRSEDTAVYYCTREGYNRDWYFDVWGQGTTVTVSS VL: DIVMTQTPLSLPVTPGEPASISCRSSQSLVHSTGNTYLEWYLQKPGQSPQLLIYKVSNRFSGVPDRFSGSGSGTDFTLKISRVEAEDVGVYYCFQGSHVPYTFGGGTKVEIKR | 4.61 | 0.000396 | 86000
Hu32a-57.IgG4AA (antibody, V domains shown, Full-length IgG4-AA, kappa) VH: EVQLVQSGAEVKKPGSSVKVSCKASGFTFSDYEIHWVRQAPGQGLEWIGLFDPETGGIVYNQKFKGRATLTADKSTSTAYMEFSSLRSEDTAVYYCTREGYNRDWYFDVWGQGTTVTVSS VL: DIVMTQTPLSLPVTPGEPASISCRSSQSLVHSTGNTYLEWYLQKPGQSPQLLIYKVSNRFSGVPDRFSGSGSGTDFTLKISRVEAEDVGVYYCFQGSHVPYTFGGGTKVEIKR | 7.85 | 0.000624 | 79400
Hu23-1.IgG4AA (antibody, Full-length IgG4-AA (S228P, F234A, L235A), kappa) heavy: not shown light: DIVMTQTPLSLPVTPGEPASISCRSSQSLVHSNGNTYLEWYLQKPGQSPQLLIYKVSNRFSGVPDRFSGSGSGTDFTLKISRVEAEDVGVYYCFQGSHVPYTFGGGTKVEIKRTVAAPSVFIFPPSDEQLKSGTASVVCLLNNFYPREAKVQWKVDNALQSGNSQESVTEQDSKDSTYSLSSTLTLSKADYEKHKVYACEVTHQGLSSPVTKSFNRGEC | 3.2 | 0.00011 | 34300
Hu23-8.IgG4AA (antibody, Full-length IgG4-AA, kappa) heavy: not shown light: DGVMTQTPLSLPVTPGEPASISCRSSQSLVHSNGNTYLEWYLQKPGQSPQLLIYKVSNRFSGVPDRFSGSGSGTDFTLKISRVEAEDVGVYYCFQGSHVPYTFGGGTKVEIKRTVAAPSVFIFPPSDEQLKSGTASVVCLLNNFYPREAKVQWKVDNALQSGNSQESVTEQDSKDSTYSLSSTLTLSKADYEKHKVYACEVTHQGLSSPVTKSFNRGEC | 3.56 | 0.000147 | 41100
Hu23-6.IgG4AA (antibody, Full-length IgG4-AA, kappa) heavy: not shown light: DGVMTQTPLSLPVTPGEPASISCRSSQSLVHSNGNTYLEWYLQKPGQSPQLLIYKVSNRFSGVPDRFSGSGSGTDFTLKISRVEAEDVGVYYCFQGSHVPYTFGGGTKVEIKRTVAAPSVFIFPPSDEQLKSGTASVVCLLNNFYPREAKVQWKVDNALQSGNSQESVTEQDSKDSTYSLSSTLTLSKADYEKHKVYACEVTHQGLSSPVTKSFNRGEC | 5.57 | 0.000155 | 27900
Hu23-7.IgG4AA (antibody, Full-length IgG4-AA, kappa) heavy: not shown light: DGVMTQTPLSLPVTPGEPASISCRSSQSLVHSNGNTYLEWYLQKPGQSPQLLIYKVSNRFSGVPDRFSGSGSGTDFTLKISRVEAEDVGVYYCFQGSHVPYTFGGGTKVEIKRTVAAPSVFIFPPSDEQLKSGTASVVCLLNNFYPREAKVQWKVDNALQSGNSQESVTEQDSKDSTYSLSSTLTLSKADYEKHKVYACEVTHQGLSSPVTKSFNRGEC | 5.97 | 0.000166 | 27700
Hu23-3.IgG4AA (antibody, Full-length IgG4-AA, kappa) heavy: not shown light: DIVMTQTPLSLPVTPGEPASISCRSSQSLVHSNGNTYLEWYLQKPGQSPQLLIYKVSNRFSGVPDRFSGSGSGTDFTLKISRVEAEDVGVYYCFQGSHVPYTFGGGTKVEIKRTVAAPSVFIFPPSDEQLKSGTASVVCLLNNFYPREAKVQWKVDNALQSGNSQESVTEQDSKDSTYSLSSTLTLSKADYEKHKVYACEVTHQGLSSPVTKSFNRGEC | 5.46 | 0.00016 | 29300
Hu23-4.IgG4AA (antibody, Full-length IgG4-AA, kappa) heavy: not shown light: DIVMTQTPLSLPVTPGEPASISCRSSQSLVHSNGNTYLEWYLQKPGQSPQLLIYKVSNRFSGVPDRFSGSGSGTDFTLKISRVEAEDVGVYYCFQGSHVPYTFGGGTKVEIKRTVAAPSVFIFPPSDEQLKSGTASVVCLLNNFYPREAKVQWKVDNALQSGNSQESVTEQDSKDSTYSLSSTLTLSKADYEKHKVYACEVTHQGLSSPVTKSFNRGEC | 3.39 | 0.000144 | 42400
Hu23-5.IgG4AA (antibody, Full-length IgG4-AA, kappa) heavy: not shown light: DGVMTQTPLSLPVTPGEPASISCRSSQSLVHSNGNTYLEWYLQKPGQSPQLLIYKVSNRFSGVPDRFSGSGSGTDFTLKISRVEAEDVGVYYCFQGSHVPYTFGGGTKVEIKRTVAAPSVFIFPPSDEQLKSGTASVVCLLNNFYPREAKVQWKVDNALQSGNSQESVTEQDSKDSTYSLSSTLTLSKADYEKHKVYACEVTHQGLSSPVTKSFNRGEC | 3.82 | 0.000114 | 29900
Hu23-2.IgG4AA (antibody, Full-length IgG4-AA, kappa) heavy: not shown light: DIVMTQTPLSLPVTPGEPASISCRSSQSLVHSNGNTYLEWYLQKPGQSPQLLIYKVSNRFSGVPDRFSGSGSGTDFTLKISRVEAEDVGVYYCFQGSHVPYTFGGGTKVEIKRTVAAPSVFIFPPSDEQLKSGTASVVCLLNNFYPREAKVQWKVDNALQSGNSQESVTEQDSKDSTYSLSSTLTLSKADYEKHKVYACEVTHQGLSSPVTKSFNRGEC | 5.86 | 0.000161 | 27400

The next binders have a lower Kd than those just listed; values first:

Kd [nM] | koff [s⁻¹] | kon [M⁻¹ s⁻¹] | Binder
2.89 | 0.000132 | 45700 | murine antibody M23 (antibody, V domains shown) VH: QVQLQQSGAELVRPGASVTLSCKASGYTFTDYEMHWVKQTPIHGLEWIGLIDPETGGTVYNQKFKDKTILTADKSSSTAYMEFRSLTSEDSAVYHCTRERFSYYGSTSDWYFDVWGTGTTVTVSS VL: DGLMTQTPLSLPVSLGDHASISCRSSQSLVHSNGNTYLEWYLQKPGQSPKLLIYKVSNRFSGVPDRFSGSGSGTDFTLKISRVEAEDLGIYYCFQGSHVPYTFGGGTKLEIK
2.22 | 0.000161 | 72300 | Hu23-14.IgG4AA (antibody, V domains shown, Full-length IgG4-AA, kappa; also called Hu23LCDR1 (G29V)) VH: EVQLVQSGAEVKKPGSSVKVSCKASGGTFSDYEMHWVRQAPGQGLEWMGLIDPETGGTVYNQKFKDRVTITADKSTSTAYMELSSLRSEDTAVYYCARERFSYYGSTSDWYFDVWGQGTTVTVSS VL: DIVMTQTPLSLPVTPGEPASISCRSSQSLVHSNVNTYLEWYLQKPGQSPQLLIYKVSNRFSGVPDRFSGSGSGTDFTLKISRVEAEDVGVYYCFQGSHVPYTFGGGTKVEIKR
2.02 | 0.00011 | 54500 | Hu23-12.IgG4AA (antibody, V domains shown, Full-length IgG4-AA, kappa; also called Hu23LCDR1 (N28D)) VH: EVQLVQSGAEVKKPGSSVKVSCKASGGTFSDYEMHWVRQAPGQGLEWMGLIDPETGGTVYNQKFKDRVTITADKSTSTAYMELSSLRSEDTAVYYCARERFSYYGSTSDWYFDVWGQGTTVTVSS VL: DIVMTQTPLSLPVTPGEPASISCRSSQSLVHSDGNTYLEWYLQKPGQSPQLLIYKVSNRFSGVPDRFSGSGSGTDFTLKISRVEAEDVGVYYCFQGSHVPYTFGGGTKVEIKR
2.15 | 0.000132 | 61600 | Hu23-9.IgG4AA (antibody, V domains shown, Full-length IgG4-AA, kappa; also called Hu23LCDR1 (N28Q)) VH: EVQLVQSGAEVKKPGSSVKVSCKASGGTFSDYEMHWVRQAPGQGLEWMGLIDPETGGTVYNQKFKDRVTITADKSTSTAYMELSSLRSEDTAVYYCARERFSYYGSTSDWYFDVWGQGTTVTVSS VL: DIVMTQTPLSLPVTPGEPASISCRSSQSLVHSQGNTYLEWYLQKPGQSPQLLIYKVSNRFSGVPDRFSGSGSGTDFTLKISRVEAEDVGVYYCFQGSHVPYTFGGGTKVEIKR
2.77 | 0.000153 | 55100 | Hu23-10.IgG4AA (antibody, V domains shown, Full-length IgG4-AA, kappa; also called Hu23LCDR1 (N28L)) VH: EVQLVQSGAEVKKPGSSVKVSCKASGGTFSDYEMHWVRQAPGQGLEWMGLIDPETGGTVYNQKFKDRVTITADKSTSTAYMELSSLRSEDTAVYYCARERFSYYGSTSDWYFDVWGQGTTVTVSS VL: DIVMTQTPLSLPVTPGEPASISCRSSQSLVHSLGNTYLEWYLQKPGQSPQLLIYKVSNRFSGVPDRFSGSGSGTDFTLKISRVEAEDVGVYYCFQGSHVPYTFGGGTKVEIKR
2.88 | 0.000122 | 42400 | Hu23-13.IgG4AA (antibody, V domains shown, Full-length IgG4-AA, kappa; also called Hu23LCDR1 (G29A)) VH: EVQLVQSGAEVKKPGSSVKVSCKASGGTFSDYEMHWVRQAPGQGLEWMGLIDPETGGTVYNQKFKDRVTITADKSTSTAYMELSSLRSEDTAVYYCARERFSYYGSTSDWYFDVWGQGTTVTVSS VL: DIVMTQTPLSLPVTPGEPASISCRSSQSLVHSNANTYLEWYLQKPGQSPQLLIYKVSNRFSGVPDRFSGSGSGTDFTLKISRVEAEDVGVYYCFQGSHVPYTFGGGTKVEIKR
